According to the supplement of paper PMC10065799, “High-throughput profiling of sequence recognition by tyrosine kinases and SH2 domains using bacterial peptide display” (eLife, 2023):

Key:
SHP2-C SH2 = experiment: SH2 binding enrichment of the phosphorylated peptide, bacterial display (enrichment ratio); higher = better substrate or ligand; peptides without Tyr show the background
c-Src SH2 = experiment: as above
Grb2 SH2 = Grb2 SH2 (UniProt P62993); experiment: as above
c-Src = experiment: phosphorylation enrichment, bacterial display (enrichment ratio); higher = better substrate or ligand; peptides without Tyr show the background
Jak2 = Jak2 (UniProt O60674); experiment: as above
Fes = Fes (UniProt P07332); experiment: as above
MERTK = MERTK (UniProt Q12866); experiment: as above
c-Abl (mouse) = experiment: as above
Fyn = Fyn (UniProt P06241); experiment: as above
FGFR3 = FGFR3 (UniProt P22607); experiment: as above
FGFR1 = FGFR1 (UniProt P11362); experiment: as above
AncSZ = experiment: as above
Hck = Hck (UniProt P08631); experiment: as above
Fer (mouse) = experiment: as above
EPHB1 = EPHB1 (UniProt P54762); experiment: as above
EPHB2 = EPHB2 (UniProt P29323); experiment: as above
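Wherever SH2 binding enrichment of the phosphorylated peptide, bacterial display is given: peptide library displayed on the E. coli surface as eCPX fusions, selected cells deep-sequenced, score is each peptide's frequency after selection divided by its frequency in the input.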
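Wherever phosphorylation enrichment, bacterial display is given: 11-residue human phosphosite peptides and single-mutation variants displayed on the E. coli surface, counted by deep sequencing, each peptide's frequency after selection divided by its frequency in the unselected input library; frequency after pTyr selection over input frequency; kinase dosed for 20-30% of maximal phosphorylation in three min.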

EPHB1, sequence (P54762 whole entry, looked up): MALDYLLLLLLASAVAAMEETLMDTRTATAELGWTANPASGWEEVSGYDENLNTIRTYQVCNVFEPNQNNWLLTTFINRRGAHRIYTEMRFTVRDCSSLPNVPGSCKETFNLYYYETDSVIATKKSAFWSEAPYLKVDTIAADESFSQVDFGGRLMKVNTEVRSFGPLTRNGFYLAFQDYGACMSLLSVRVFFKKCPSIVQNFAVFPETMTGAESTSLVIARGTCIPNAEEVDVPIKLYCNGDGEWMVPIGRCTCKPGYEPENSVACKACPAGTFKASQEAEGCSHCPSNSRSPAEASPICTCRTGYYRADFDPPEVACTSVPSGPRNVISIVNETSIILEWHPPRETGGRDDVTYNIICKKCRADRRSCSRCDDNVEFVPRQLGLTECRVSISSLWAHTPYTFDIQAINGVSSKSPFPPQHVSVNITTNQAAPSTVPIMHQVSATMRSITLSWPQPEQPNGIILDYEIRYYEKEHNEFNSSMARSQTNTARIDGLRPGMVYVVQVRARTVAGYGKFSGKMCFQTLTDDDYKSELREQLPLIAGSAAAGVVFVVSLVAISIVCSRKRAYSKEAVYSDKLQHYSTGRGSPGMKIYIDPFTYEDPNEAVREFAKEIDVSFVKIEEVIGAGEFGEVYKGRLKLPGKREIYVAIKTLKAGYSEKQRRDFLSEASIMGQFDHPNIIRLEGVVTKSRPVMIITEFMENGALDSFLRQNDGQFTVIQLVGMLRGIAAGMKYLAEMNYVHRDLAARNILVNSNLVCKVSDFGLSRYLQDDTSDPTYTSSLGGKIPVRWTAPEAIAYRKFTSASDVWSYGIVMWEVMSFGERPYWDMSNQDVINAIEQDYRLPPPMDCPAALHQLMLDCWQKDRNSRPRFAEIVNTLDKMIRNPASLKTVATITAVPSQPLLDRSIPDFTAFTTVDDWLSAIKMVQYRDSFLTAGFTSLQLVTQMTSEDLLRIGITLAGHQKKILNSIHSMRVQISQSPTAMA
Jak2, sequence (O60674 whole entry, looked up): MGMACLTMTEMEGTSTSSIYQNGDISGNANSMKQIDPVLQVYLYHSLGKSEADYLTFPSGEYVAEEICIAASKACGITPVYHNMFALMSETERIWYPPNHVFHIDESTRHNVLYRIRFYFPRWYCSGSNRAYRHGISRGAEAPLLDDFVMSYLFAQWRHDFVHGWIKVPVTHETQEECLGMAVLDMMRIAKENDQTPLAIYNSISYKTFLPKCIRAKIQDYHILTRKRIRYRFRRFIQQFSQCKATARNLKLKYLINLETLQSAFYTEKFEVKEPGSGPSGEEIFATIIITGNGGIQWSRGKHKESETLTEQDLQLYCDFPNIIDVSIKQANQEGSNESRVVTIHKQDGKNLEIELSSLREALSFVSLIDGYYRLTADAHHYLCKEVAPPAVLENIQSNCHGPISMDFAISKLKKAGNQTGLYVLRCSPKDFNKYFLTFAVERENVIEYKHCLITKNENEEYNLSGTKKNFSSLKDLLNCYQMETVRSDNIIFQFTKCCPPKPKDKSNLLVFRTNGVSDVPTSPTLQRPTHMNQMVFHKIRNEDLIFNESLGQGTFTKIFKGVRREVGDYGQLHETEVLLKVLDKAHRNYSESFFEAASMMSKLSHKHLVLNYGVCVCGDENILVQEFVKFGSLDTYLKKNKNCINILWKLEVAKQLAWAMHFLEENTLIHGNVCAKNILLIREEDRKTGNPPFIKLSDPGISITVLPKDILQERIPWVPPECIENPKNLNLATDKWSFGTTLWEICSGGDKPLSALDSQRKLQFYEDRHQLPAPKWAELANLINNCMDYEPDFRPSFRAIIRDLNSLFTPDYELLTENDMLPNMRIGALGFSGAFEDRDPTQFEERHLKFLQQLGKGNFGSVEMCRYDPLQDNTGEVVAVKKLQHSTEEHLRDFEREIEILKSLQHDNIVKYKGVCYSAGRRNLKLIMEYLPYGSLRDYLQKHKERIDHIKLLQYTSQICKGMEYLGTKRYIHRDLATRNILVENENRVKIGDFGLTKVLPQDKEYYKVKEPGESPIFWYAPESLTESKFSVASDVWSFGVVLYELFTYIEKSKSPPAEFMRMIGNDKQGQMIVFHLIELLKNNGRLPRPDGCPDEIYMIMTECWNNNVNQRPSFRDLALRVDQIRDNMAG
FGFR1, sequence (P11362 whole entry, looked up): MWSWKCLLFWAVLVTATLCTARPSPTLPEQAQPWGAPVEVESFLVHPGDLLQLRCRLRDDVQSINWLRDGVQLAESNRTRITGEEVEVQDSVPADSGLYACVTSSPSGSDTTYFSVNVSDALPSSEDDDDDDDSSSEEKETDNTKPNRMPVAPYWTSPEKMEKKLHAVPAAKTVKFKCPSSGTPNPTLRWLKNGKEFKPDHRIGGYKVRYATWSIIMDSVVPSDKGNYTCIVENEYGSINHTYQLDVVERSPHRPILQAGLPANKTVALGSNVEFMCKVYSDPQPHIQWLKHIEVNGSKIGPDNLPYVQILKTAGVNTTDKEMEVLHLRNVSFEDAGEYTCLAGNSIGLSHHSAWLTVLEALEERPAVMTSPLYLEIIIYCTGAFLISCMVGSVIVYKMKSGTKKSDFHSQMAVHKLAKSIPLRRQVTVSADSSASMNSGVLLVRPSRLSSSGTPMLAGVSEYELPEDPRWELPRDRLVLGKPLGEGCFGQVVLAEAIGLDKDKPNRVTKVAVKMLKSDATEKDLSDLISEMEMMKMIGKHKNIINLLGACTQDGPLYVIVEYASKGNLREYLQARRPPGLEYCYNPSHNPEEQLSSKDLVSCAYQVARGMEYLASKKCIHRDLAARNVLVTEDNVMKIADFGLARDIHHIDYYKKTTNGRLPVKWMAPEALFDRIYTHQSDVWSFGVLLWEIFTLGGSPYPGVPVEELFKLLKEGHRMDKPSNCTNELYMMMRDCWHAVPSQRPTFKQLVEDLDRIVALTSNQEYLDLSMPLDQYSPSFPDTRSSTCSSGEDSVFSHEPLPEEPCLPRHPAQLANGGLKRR
Hck, sequence (P08631 whole entry, looked up): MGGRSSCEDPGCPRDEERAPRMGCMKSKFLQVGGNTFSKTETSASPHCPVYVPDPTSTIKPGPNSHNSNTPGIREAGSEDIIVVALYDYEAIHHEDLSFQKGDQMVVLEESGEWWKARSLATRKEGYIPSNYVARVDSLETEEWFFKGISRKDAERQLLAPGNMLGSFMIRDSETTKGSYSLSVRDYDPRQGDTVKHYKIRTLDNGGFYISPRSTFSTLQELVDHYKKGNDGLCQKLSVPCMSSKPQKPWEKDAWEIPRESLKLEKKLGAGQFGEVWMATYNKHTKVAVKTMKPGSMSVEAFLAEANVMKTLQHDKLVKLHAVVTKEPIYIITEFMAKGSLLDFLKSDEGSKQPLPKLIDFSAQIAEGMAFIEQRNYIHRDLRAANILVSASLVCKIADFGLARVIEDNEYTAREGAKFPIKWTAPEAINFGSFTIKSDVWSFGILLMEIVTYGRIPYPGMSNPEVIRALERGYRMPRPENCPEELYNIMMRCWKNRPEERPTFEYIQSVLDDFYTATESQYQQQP
EPHB2, sequence (P29323 whole entry, looked up, the tested form may be a part): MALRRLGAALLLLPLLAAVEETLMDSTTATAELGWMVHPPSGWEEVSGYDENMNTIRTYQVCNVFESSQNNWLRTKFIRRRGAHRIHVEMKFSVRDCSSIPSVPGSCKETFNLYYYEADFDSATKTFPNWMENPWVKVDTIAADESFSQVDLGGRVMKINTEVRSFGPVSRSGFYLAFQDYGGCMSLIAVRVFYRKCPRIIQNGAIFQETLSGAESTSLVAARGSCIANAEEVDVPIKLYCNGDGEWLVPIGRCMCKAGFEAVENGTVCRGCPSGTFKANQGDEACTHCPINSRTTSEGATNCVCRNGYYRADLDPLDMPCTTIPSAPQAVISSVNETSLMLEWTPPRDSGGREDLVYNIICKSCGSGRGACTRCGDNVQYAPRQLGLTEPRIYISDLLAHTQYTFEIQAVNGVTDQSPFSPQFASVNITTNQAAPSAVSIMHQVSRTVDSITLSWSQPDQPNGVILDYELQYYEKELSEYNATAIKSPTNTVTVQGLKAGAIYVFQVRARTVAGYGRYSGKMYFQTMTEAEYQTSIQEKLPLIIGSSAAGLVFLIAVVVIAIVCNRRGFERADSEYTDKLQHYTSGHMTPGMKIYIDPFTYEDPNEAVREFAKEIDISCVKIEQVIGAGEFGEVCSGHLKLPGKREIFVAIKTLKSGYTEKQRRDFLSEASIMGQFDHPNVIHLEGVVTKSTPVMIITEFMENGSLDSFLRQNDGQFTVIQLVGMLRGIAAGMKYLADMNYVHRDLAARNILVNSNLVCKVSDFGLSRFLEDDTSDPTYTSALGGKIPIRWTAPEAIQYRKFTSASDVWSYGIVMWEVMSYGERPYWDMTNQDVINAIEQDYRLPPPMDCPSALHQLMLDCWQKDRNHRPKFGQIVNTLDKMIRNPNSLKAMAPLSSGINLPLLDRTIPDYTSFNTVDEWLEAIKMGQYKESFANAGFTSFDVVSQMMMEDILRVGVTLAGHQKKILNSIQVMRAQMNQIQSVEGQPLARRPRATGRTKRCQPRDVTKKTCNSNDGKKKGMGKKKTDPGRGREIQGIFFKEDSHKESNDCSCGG
Grb2 SH2, sequence (P62993 whole entry, looked up): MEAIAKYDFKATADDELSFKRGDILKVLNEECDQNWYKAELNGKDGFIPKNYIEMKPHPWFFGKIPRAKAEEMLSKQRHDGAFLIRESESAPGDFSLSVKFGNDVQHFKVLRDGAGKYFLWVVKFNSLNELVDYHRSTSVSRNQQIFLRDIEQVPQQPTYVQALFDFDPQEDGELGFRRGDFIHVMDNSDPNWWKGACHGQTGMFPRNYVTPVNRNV

For KPLMPCMRYSR [SMARCE1_Y73_Y73C], the SH2 binding enrichment (SHP2-C SH2) was 0.558, the SH2 binding enrichment (c-Src SH2) was 0.485 and the SH2 binding enrichment (Grb2 SH2) was 0.808. For the same sequence, the phosphorylation enrichment (c-Src) was 0.444, the phosphorylation enrichment (Jak2) was 0.756 and the phosphorylation enrichment (Fes) was 0.791. The phosphorylation enrichment (MERTK) was 0.538, the phosphorylation enrichment (c-Abl (mouse)) was 0.781 and the phosphorylation enrichment (Fyn) was 0.458. It also gave a phosphorylation enrichment (FGFR3) of 0.476, a phosphorylation enrichment (FGFR1) of 0.407 and a phosphorylation enrichment (AncSZ) of 0.821. The phosphorylation enrichment (Hck) was 0.517, the phosphorylation enrichment (Fer (mouse)) was 0.452 and the phosphorylation enrichment (EPHB1) was 0.404. It also gave a phosphorylation enrichment (EPHB2) of 0.535.

For NACGLYHKMNG [GATA5_Y216], the SH2 binding enrichment (SHP2-C SH2) was 0.945, the SH2 binding enrichment (c-Src SH2) was 1.95 and the SH2 binding enrichment (Grb2 SH2) was 0.81. For the same sequence, the phosphorylation enrichment (c-Src) was 0.523, the phosphorylation enrichment (Jak2) was 0.798 and the phosphorylation enrichment (Fes) was 1.03. For the same sequence, the phosphorylation enrichment (MERTK) was 0.624, the phosphorylation enrichment (c-Abl (mouse)) was 0.525 and the phosphorylation enrichment (Fyn) was 0.371. For the same sequence, the phosphorylation enrichment (FGFR3) was 0.567, the phosphorylation enrichment (FGFR1) was 0.581 and the phosphorylation enrichment (AncSZ) was 0.795. For the same sequence, the phosphorylation enrichment (Hck) was 0.533, the phosphorylation enrichment (Fer (mouse)) was 0.673 and the phosphorylation enrichment (EPHB1) was 0.508. The phosphorylation enrichment (EPHB2) was 0.447.

Work on HVIKFYGACSQ [RET_Y791_L790F] yielded an SH2 binding enrichment (SHP2-C SH2) of 0.773, an SH2 binding enrichment (c-Src SH2) of 0.546 and an SH2 binding enrichment (Grb2 SH2) of 0.833. For the same sequence, the phosphorylation enrichment (c-Src) was 0.564, the phosphorylation enrichment (Jak2) was 1.3 and the phosphorylation enrichment (Fes) was 1.75. For the same sequence, the phosphorylation enrichment (MERTK) was 0.545, the phosphorylation enrichment (c-Abl (mouse)) was 1.4 and the phosphorylation enrichment (Fyn) was 0.759. It also gave a phosphorylation enrichment (FGFR3) of 1.08, a phosphorylation enrichment (FGFR1) of 0.871 and a phosphorylation enrichment (AncSZ) of 1.5. The phosphorylation enrichment (Hck) was 0.779, the phosphorylation enrichment (Fer (mouse)) was 0.576 and the phosphorylation enrichment (EPHB1) was 0.956. For the same sequence, the phosphorylation enrichment (EPHB2) was 0.851.

RCNHPYLINGA [CHD7_Y1256_C1251R] was tested, and the SH2 binding enrichment (SHP2-C SH2) was 0.693, the SH2 binding enrichment (c-Src SH2) was 0.732 and the SH2 binding enrichment (Grb2 SH2) was 0.931. The phosphorylation enrichment (c-Src) was 0.481, the phosphorylation enrichment (Jak2) was 0.646 and the phosphorylation enrichment (Fes) was 0.68. For the same sequence, the phosphorylation enrichment (MERTK) was 0.429, the phosphorylation enrichment (c-Abl (mouse)) was 0.578 and the phosphorylation enrichment (Fyn) was 0.401. For the same sequence, the phosphorylation enrichment (FGFR3) was 0.569, the phosphorylation enrichment (FGFR1) was 0.464 and the phosphorylation enrichment (AncSZ) was 0.664. It also gave a phosphorylation enrichment (Hck) of 0.506, a phosphorylation enrichment (Fer (mouse)) of 0.505 and a phosphorylation enrichment (EPHB1) of 0.249. For the same sequence, the phosphorylation enrichment (EPHB2) was 0.518.

With SLDHPYEKPRK [INAVA_Y333] the SH2 binding enrichment (SHP2-C SH2) was 0.683, the SH2 binding enrichment (c-Src SH2) was 1.77 and the SH2 binding enrichment (Grb2 SH2) was 0.852. For the same sequence, the phosphorylation enrichment (c-Src) was 0.352, the phosphorylation enrichment (Jak2) was 0.436 and the phosphorylation enrichment (Fes) was 0.63. The phosphorylation enrichment (MERTK) was 0.329, the phosphorylation enrichment (c-Abl (mouse)) was 0.423 and the phosphorylation enrichment (Fyn) was 0.371. For the same sequence, the phosphorylation enrichment (FGFR3) was 0.421, the phosphorylation enrichment (FGFR1) was 0.339 and the phosphorylation enrichment (AncSZ) was 0.741. For the same sequence, the phosphorylation enrichment (Hck) was 0.39, the phosphorylation enrichment (Fer (mouse)) was 0.388 and the phosphorylation enrichment (EPHB1) was 0.349. The phosphorylation enrichment (EPHB2) was 0.467.

Sequence GRLPEYNTPIA [CCDC151_Y542_R545P] has an SH2 binding enrichment (SHP2-C SH2) of 0.479, an SH2 binding enrichment (c-Src SH2) of 0.841 and an SH2 binding enrichment (Grb2 SH2) of 0.807. It also gave a phosphorylation enrichment (c-Src) of 0.463, a phosphorylation enrichment (Jak2) of 0.662 and a phosphorylation enrichment (Fes) of 0.643. It also gave a phosphorylation enrichment (MERTK) of 0.407, a phosphorylation enrichment (c-Abl (mouse)) of 0.716 and a phosphorylation enrichment (Fyn) of 0.442. It also gave a phosphorylation enrichment (FGFR3) of 0.397, a phosphorylation enrichment (FGFR1) of 0.388 and a phosphorylation enrichment (AncSZ) of 0.704. It also gave a phosphorylation enrichment (Hck) of 0.325, a phosphorylation enrichment (Fer (mouse)) of 0.317 and a phosphorylation enrichment (EPHB1) of 0.515. It also gave a phosphorylation enrichment (EPHB2) of 0.432.

WRPFGYPRRRR [BCS1L_Y181] showed an SH2 binding enrichment (SHP2-C SH2) of 0.66, an SH2 binding enrichment (c-Src SH2) of 0.349 and an SH2 binding enrichment (Grb2 SH2) of 0.731. It also gave a phosphorylation enrichment (c-Src) of 0.446, a phosphorylation enrichment (Jak2) of 0.494 and a phosphorylation enrichment (Fes) of 0.513. It also gave a phosphorylation enrichment (MERTK) of 0.487, a phosphorylation enrichment (c-Abl (mouse)) of 0.444 and a phosphorylation enrichment (Fyn) of 0.518. It also gave a phosphorylation enrichment (FGFR3) of 0.522, a phosphorylation enrichment (FGFR1) of 0.367 and a phosphorylation enrichment (AncSZ) of 0.615. The phosphorylation enrichment (Hck) was 0.453, the phosphorylation enrichment (Fer (mouse)) was 0.462 and the phosphorylation enrichment (EPHB1) was 0.486. For the same sequence, the phosphorylation enrichment (EPHB2) was 0.481.

Work on LDTSQYFRLFN [CPT2_Y217_M214T] yielded an SH2 binding enrichment (SHP2-C SH2) of 1.98, an SH2 binding enrichment (c-Src SH2) of 0.472 and an SH2 binding enrichment (Grb2 SH2) of 0.96. For the same sequence, the phosphorylation enrichment (c-Src) was 0.535, the phosphorylation enrichment (Jak2) was 4.85 and the phosphorylation enrichment (Fes) was 0.784. For the same sequence, the phosphorylation enrichment (MERTK) was 0.532, the phosphorylation enrichment (c-Abl (mouse)) was 0.617 and the phosphorylation enrichment (Fyn) was 0.413. For the same sequence, the phosphorylation enrichment (FGFR3) was 1.36, the phosphorylation enrichment (FGFR1) was 1.47 and the phosphorylation enrichment (AncSZ) was 0.824. It also gave a phosphorylation enrichment (Hck) of 0.61, a phosphorylation enrichment (Fer (mouse)) of 0.498 and a phosphorylation enrichment (EPHB1) of 0.673. The phosphorylation enrichment (EPHB2) was 0.522.
